Source: patent publication US10724009B2, “Cannabichromenic acid synthase from Cannabis sativa” (priority 2014, dated 2020)
Values joined by “and” are separate entries in the source; they are usually repeats but may differ in a detail not shown here. Equal values may be shown once.

Columns and labels:
[1] = target: T1, recombinant CBCAS (Cannabis sativa, UniProt Q33DQ2, H543R/W244C); experiment: CBCAS assay: conversion of CBGA to CBCA, products analysed by HPLC/LCMS; format: biochemical; conditions: for inhibition of recombinant CBCAS by additive: FIG. 4, effect of additive on CBCA production, high concentrations; for formation of CBCA from CBGA: recombinant enzyme expressed in Pichia pastoris, CBGA incubated 14 h
T1 construct: alpha-factor signal peptide (vector encoded) (N); made in house; host or cells: Pichia pastoris strain X33
Procedure: FIG. 4 depicts optimal conditions for CBCAS activity. […] Values are expressed as a fraction of CBCA produced (CBCA A265 nm/(CBGA A265 nm+CBCA A265 nm)*100).
Reactions using media were performed by incubating 10 μmols CBGA in 500 μL of clarified culture media for 14 h. Reactions using hydroxyl-apatite fractions were performed with 100 μL of the fraction incubated with 10 nmols of CBGA for 14 h. Completed reactions were acidified with one drop of 4 N HCl and extracted twice with 400 μL of acetonitrile. After centrifugation, the organic phases were pooled and evaporated to dryness. Products were resuspended in 20 μL of 50% methanol, of which 10 μL was analyzed by LCMS. Products were separated with a Waters Alliance HPLC using a binary solvent system (solvent A: 10% acetonitrile, 0.05% formic acid; solvent B: 99.95% acetonitrile, 0.05% formic acid) and an Ascnetis C18 5 cm×2.1 mm 2.7 μm column (Sigma). Initial conditions: 55% A at 0.25 mL/min. Ramp to 5% A from 0-8 min, hold at 5% A for 2.5 min, return to initial conditions over 2 min and equilibrate at initial conditions for 7 min. Ultraviolet spectra were obtained using photodiode array detection at 200-350 nm.

[2] = test system: mouse tetrad model; conditions: at high concentrations (DeLong et al., 2011); cited from earlier work

## Triton X-100 [reference compound]
[1]
  inhibition of recombinant CBCAS by additive: inhibited by high concentrations

## CCCCCc1cc(O)c2c(c1)OC(C)(CCC=C(C)C)C=C2 (stereo not drawn) [CBC, cannabichromene]
[2]
  THC-like activity in a mouse tetrad model: shows THC-like activity

## C[S+](C)[O-] [DMSO, reference compound]
[1]
  inhibition of recombinant CBCAS by additive: inhibited by high concentrations

B1: recombinant CBCAS: Cannabis sativa cannabichromenic acid synthase (SEQ ID NO:2) expressed in Pichia pastoris with alpha-factor signal peptide (protein)
chain: MNCSTFSFWFVCKIIFFFLSFNIQISIANPQENFLKCFSEYIPNNPANPKFIYTQHDQLYMSVLNSTIQNLRFTSDTTPKPLVIVTPSNVSHIQASILCSKKVGLQIRTRSGGHDAEGLSYISQVPFAIVDLRNMHTVKVDIHSQTAWVEAGATLGEVYYWINEMNENFSFPGGYCPTVGVGGHFSGGGYGALMRNYGLAADNIIDAHLVNVDGKVLDRKSMGEDLFWAIRGGGGENFGIIAACKIKLVVVPSKATIFSVKKNMEIHGLVKLFNKWQNIAYKYDKDLMLTTHFRTRNITDNHGKNKTTVHGYFSSIFLGGVDSLVDLMNKSFPELGIKKTDCKELSWIDTTIFYSGVVNYNTANFKKEILLDRSAGKKTAFSIKLDYVKKLIPETAMVKILEKLYEEEVGVGMYVLYPYGGIMDEISESAIPFPHRAGIMYELWYTATWEKQEDNEKHINWVRSVYNFTTPYVSQNPRLAYLNYRDLDLGKTNPESPNNYTQARIWGEKYFGKNFNRLVKVKTKADPNNFFRNEQSIPPLPPRHH
modifications: alpha-factor signal peptide; Cannabis Sativa
[1]; 35, 40, 45 and 50° C. tested
  temperature of maximal activity: 40 °C
[1]; FIG. 4, effect of buffer and buffer pH on CBCA production
  pH optimum: 5.5
[1]; FIG. 4, effect of incubation temperature on CBCA production
  temperature optimum: 40 degrees
[1]; pH 3.5 to 7 tested
  pH of maximal activity: 5 and 5.5
[1]
  formation of CBCA from CBGA: catalyzed the formation of CBCA from CBGA
[1]; listed as CBCAS
  formation of CBCA from CBGA: produces CBCA
